IntAct's records for PubMed 18458160

B1: KN motif and ankyrin repeat domain-containing protein 1 (Homo sapiens), Q14678-2 (parent)
chain: METRRRLEQERATMQMTPGEFRRPRLASFGGMGTTSSLPSFVGSGNHNPAKHQLQNGYQGNGDYGSYAPAAPTTSSMGSSIRHSPLSSGISTPVTNVSPMHLQHIREQMAIALKRLKELEEQVRTIPVLQVKISVLQEEKRQLVSQLKNQRAASQINVCGVRKRSYSAGNASQLEQLSRARRSGGELYIDYEEEEMETVEQSTQRIKEFRQLTADMQALEQKIQDSSCEASSELRENGECRSVAVGAEENMNDIVVYHRGSRSCKDAAVGTLVEMRNCGVSVTEAMLGVMTEADKEIELQQQTIESLKEKIYRLEVQLRETTHDREMTKLKQELQAAGSRKKVDKATMAQPLVFSKVVEAVVQTRDQMVGSHMDLVDTCVGTSVETNSVGISCQPECKNKVVGPELPMNWWIVKERVEMHDRCAGRSVEMCDKSVSVEVSVCETGSNTEESVNDLTLLKTNLNLKEVRSIGCGDCSVDVTVCSPKECASRGVNTEAVSQVEAAVMAVPRTADQDTSTDLEQVHQFTNTETATLIESCTNTCLSTLDKQTSTQTVETRTVAVGEGRVKDINSSTKTRSIGVGTLLSGHSGFDRPSAVKTKESGVGQININDNYLVGLKMRTIACGPPQLTVGLTASRRSVGVGDDPVGESLENPQPQAPLGMMTGLDHYIERIQKLLAEQQTLLAENYSELAEAFGEPHSQMGSLNSQLISTLSSINSVMKSASTEELRNPDFQKTSLGKITGNYLGYTCKCGGLQSGSPLSSQTSQPEQEVGTSEGKPISSLDAFPTQEGTLSPVNLTDDQIAAGLYACTNNESTLKSIMKKKDGNKDSNGAKKNLQFVGINGGYETTSSDDSSSDESSSSESDDECDVIEYPLEEEEEEEDEDTRGMAEGHHAVNIEGLKSARVEDEMQVQECEPEKVEIRERYELSEKMLSACNLLKNTINDPKALTSKDMRFCLNTLQHEWFRVSSQKSAIPAMVGDYIAAFEAISPDVLRYVINLADGNGNTALHYSVSHSNFEIVKLLLDADVCNVDHQNKAGYTPIMLAALAAVEAEKDMRIVEELFGCGDVNAKASQAGQTALMLAVSHGRIDMVKGLLACGADVNIQDDEGSTALMCASEHGHVEIVKLLLAQPGCNGHLEDNDGSTALSIALEAGHKDIAVLLYAHVNFAKAQSPGTPRLGRKTSPGPTHRGSFD
partner: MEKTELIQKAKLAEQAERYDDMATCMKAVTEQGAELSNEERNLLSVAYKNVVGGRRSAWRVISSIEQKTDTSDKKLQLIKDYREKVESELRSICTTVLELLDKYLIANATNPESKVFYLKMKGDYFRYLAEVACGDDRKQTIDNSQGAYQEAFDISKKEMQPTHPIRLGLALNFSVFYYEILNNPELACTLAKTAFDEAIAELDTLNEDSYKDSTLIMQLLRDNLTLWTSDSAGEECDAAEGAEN
B2: KN motif and ankyrin repeat domain-containing protein 1 (Homo sapiens), Q14678-2 (parent)
chain: B1 chain
B3: KN motif and ankyrin repeat domain-containing protein 1 (Homo sapiens), Q14678-2 (parent)
chain: B1 chain
partner: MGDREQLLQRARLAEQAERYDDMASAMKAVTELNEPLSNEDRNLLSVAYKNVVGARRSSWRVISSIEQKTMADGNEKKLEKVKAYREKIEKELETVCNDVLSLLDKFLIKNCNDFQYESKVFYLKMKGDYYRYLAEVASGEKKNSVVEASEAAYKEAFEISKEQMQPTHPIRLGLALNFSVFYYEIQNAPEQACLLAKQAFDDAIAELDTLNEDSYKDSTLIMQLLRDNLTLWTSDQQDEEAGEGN
B4: KN motif and ankyrin repeat domain-containing protein 1 (Homo sapiens), Q14678-2 (parent)
chain: B1 chain
partner: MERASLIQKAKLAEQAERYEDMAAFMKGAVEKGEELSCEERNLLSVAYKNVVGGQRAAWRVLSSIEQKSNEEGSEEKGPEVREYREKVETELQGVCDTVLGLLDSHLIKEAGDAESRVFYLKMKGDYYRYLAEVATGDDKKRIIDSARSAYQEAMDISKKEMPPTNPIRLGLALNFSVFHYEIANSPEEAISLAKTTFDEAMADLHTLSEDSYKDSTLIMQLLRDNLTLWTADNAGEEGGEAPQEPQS
B5: KN motif and ankyrin repeat domain-containing protein 1 (Homo sapiens), Q14678-2 (parent)
chain: B1 chain
partner: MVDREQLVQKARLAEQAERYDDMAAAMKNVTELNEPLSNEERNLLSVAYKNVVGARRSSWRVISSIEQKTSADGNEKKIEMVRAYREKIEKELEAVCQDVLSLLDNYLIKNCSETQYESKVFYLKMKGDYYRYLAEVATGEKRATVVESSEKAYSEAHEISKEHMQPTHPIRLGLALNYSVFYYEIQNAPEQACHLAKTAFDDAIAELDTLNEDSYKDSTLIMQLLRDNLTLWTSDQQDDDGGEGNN

Variants of: B1
Conditions: with 1433t_human YWHAQ

| Variant | effect of a mutation on the interaction |
| --- | --- |
| S167A | disrupting interaction |

Variants of: B2
Conditions: with 1433z_human YWHAZ

| Variant | effect of a mutation on the interaction |
| --- | --- |
| S167A | disrupting interaction |

Variants of: B2
Conditions: with 1433e_human YWHAE

| Variant | effect of a mutation on the interaction |
| --- | --- |
| S167A | disrupting interaction |

Variants of: B2
Conditions: with 1433b_human YWHAB

| Variant | effect of a mutation on the interaction |
| --- | --- |
| S167A | disrupting interaction |

Variants of: B3
Conditions: with 1433f_human YWHAH

| Variant | effect of a mutation on the interaction |
| --- | --- |
| S167A | disrupting interaction |

Variants of: B4
Conditions: with 1433s_human SFN

| Variant | effect of a mutation on the interaction |
| --- | --- |
| S167A | disrupting interaction |

Variants of: B5
Conditions: with 1433g_human YWHAG

| Variant | effect of a mutation on the interaction |
| --- | --- |
| S167A | disrupting interaction |
